# In patent US11278600B2, “Human alpha-galactosidase variants” (Codexis, Inc., priority 2014, dated 2022):
# Positions count from the first letter of the chain named.
# B1: 361 (protein)
# chain: LDNGLARTPTMGWLHWERFMCNLDCQEEPDSCISEKLFMEMAERMVREGWKDAGYEYLCIDDCWMAPQRDSEGRLQADPQRFPHGIRQLANYVHSKGLKLGIYADVGNKTCAGFPGSFGYYDIDAQTFADWGVDLLKFDGCYCDSLENLADGYKHMSLALNRTGRSIVYSCEWPLYMWPFQKPNYTEIRQYCNHWRNFADIDDSWKSIKSILDWTSRNQERIVDVAGPGGWNDPDMLVIGNFGLSWDQQVTQMALWAIMAAPLFMSNDLRHISPQAKALLQDKDVIAINQDPLGKQGYQLRKGDNFEVWERPLSGDAWAVAIINRQEIGGPRSYTIPVASLGKGVACNPACFITQLLPVKRQLGFYNWTSRLKSHINPTGTVLLQLENTMQMSLKDLL
# modifications: Synthetic Polypeptide sequence of Variant No. 361 of mature Human GLA
# B2: 398 (protein)
# chain: B1 chain with R47S, A159S
# modifications: Synthetic Polypeptide sequence of Variant No. 398 of mature Human GLA
# B3: 399 (protein)
# chain: B1 chain with R47S, R165K
# modifications: Synthetic Polypeptide sequence of Variant No. 399 of mature Human GLA
# B4: 400 (protein)
# chain: B1 chain with R47S, L158C
# modifications: Synthetic Polypeptide sequence of Variant No. 400 of mature Human GLA
# B5: 401 (protein)
# chain: B1 chain with R47S, T163S
# modifications: Synthetic Polypeptide sequence of Variant No. 401 of mature Human GLA
# B6: 402 (protein)
# chain: B1 chain with R47S, S166P, K206A
# modifications: Synthetic Polypeptide sequence of Variant No. 402
# Test: HTP-analysis of supernatants pretreated with base (MUGal hydrolysis)
# Format: biochemical
# Conditions: activity of the variant/activity of Rd4BB (SEQ ID NO: 15); challenge at pH 9.65
# How it was run: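 Fluorescence of released 4-MU (Ex 355 nm, Em 448 nm) after carbonate quench reports MUGal hydrolysis by GLA variants secreted from INVSc1 yeast. Before the acidic (pH 4.3-4.8) 30-180 min reaction at 37° C, supernatants had been pre-incubated at pH 7.0-9.7 for 1-18 h at 37° C.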
row,Molecule,Relative Activity of GLA Variants After Challenge at pH 9.65
1,B1,+ (0.5 to 1.5 relative activity over Rd4BB (SEQ ID NO: 15))
2,B2,− (<0.5 relative activity over Rd4BB (SEQ ID NO: 15))
3,B3,+ (0.5 to 1.5 relative activity over Rd4BB (SEQ ID NO: 15))
4,B4,− (<0.5 relative activity over Rd4BB (SEQ ID NO: 15))
5,B5,− (<0.5 relative activity over Rd4BB (SEQ ID NO: 15))
6,B6,+ (0.5 to 1.5 relative activity over Rd4BB (SEQ ID NO: 15))

# Test: HTP-analysis of supernatants pretreated with acid (MUGal hydrolysis)
# Format: biochemical
# Conditions: activity of the variant/activity of Rd4BB (SEQ ID NO: 15); challenge at pH 3.7
# How it was run: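 GLA variants were secreted from INVSc1 yeast grown 66-84 h at 30° C. in SD-Ura with 2% glucose; supernatants were mixed with McIlvaine buffer pH 3.3-4.3 and held at 37° C. for 1-3 h. Residual activity on MUGal at pH 4.8 was then measured by fluorescence.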
row,Molecule,Relative Activity of GLA Variants After Challenge at pH 3.7
1,B1,+ (0.5 to 1.5 relative activity over Rd4BB (SEQ ID NO: 15))
2,B2,++ (>1.5 to 2.5 relative activity over Rd4BB (SEQ ID NO: 15))
3,B3,+ (0.5 to 1.5 relative activity over Rd4BB (SEQ ID NO: 15))
4,B4,+ (0.5 to 1.5 relative activity over Rd4BB (SEQ ID NO: 15))
5,B5,+ (0.5 to 1.5 relative activity over Rd4BB (SEQ ID NO: 15))
6,B6,++ (>1.5 to 2.5 relative activity over Rd4BB (SEQ ID NO: 15))

# Test: HTP-analysis of yeast culture supernatants, no challenge (MUGal hydrolysis)
# Format: biochemical
# Conditions: activity of the variant/activity of Rd4BB (SEQ ID NO: 15)
# How it was run: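 Activity read as 4-methylumbelliferyl α-D-galactopyranoside hydrolysis: fluorescence (355/448 nm) after sodium carbonate stop, following 30-180 min at 37° C with 2 mM MUGal stock at pH 4.6–4.8. Enzyme source is unchallenged culture supernatant of INVSc1 yeast expressing GLA variants, grown 66-84 h at 30° C.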
row,Molecule,Relative Activity of GLA Variants After No Challenge (NC)
1,B1,+ (0.5 to 1.5 relative activity over Rd4BB (SEQ ID NO: 15))
2,B2,+ (0.5 to 1.5 relative activity over Rd4BB (SEQ ID NO: 15))
3,B3,+ (0.5 to 1.5 relative activity over Rd4BB (SEQ ID NO: 15))
4,B4,+ (0.5 to 1.5 relative activity over Rd4BB (SEQ ID NO: 15))
5,B5,+ (0.5 to 1.5 relative activity over Rd4BB (SEQ ID NO: 15))
6,B6,+ (0.5 to 1.5 relative activity over Rd4BB (SEQ ID NO: 15))
